The series has as its system ATP. Briefly: switch fluorescence ratio, 500 uM ATP over buffer (Cy3 cluster intensity, sum of 5 cycles each) (fold (ratio)); higher = stronger signal-on switching upon ATP binding; sequences stand for … in TCGTCGGCAGCGTCAGATGTGTATAAGAGACAGTTTTTTTTTTTTTTTTTTTTTTTTT…TC. The following applies: aptamer strand: ATP DNA aptamer (quencher-CACCTGGGGGAGTATTGCGGAGGAAGG + anchor), 100 nM annealed; ATP concentration: 500 uM. In a few lines: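 Clusters with intensities outside 100-1000 RFU were excluded. The remaining Cy3-labelled switching-strand clusters on a modified Illumina MiSeq flow-cell had been annealed to 100 nM quencher-labelled ATP aptamer and imaged in selection buffer, then after 15 min with 500 uM ATP at 22 °C, for five cycles separated by NaOH stripping and re-annealing. The fluorescence ratio, averaged per switch-domain sequence, is each cluster's summed target-cycle Cy3 intensity over its summed buffer-cycle Cy3 intensity.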

± gives the standard deviation of the averaged measurements.
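Further: ATP exposure 15 min at 22 °C before imaging.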

Turning to TGGCAATATT, the switch fluorescence ratio stood at 2.31 ± 1.6. CCTAACTAAA: the switch fluorescence ratio is 0.995 ± 0.028. The value for GGGTTAATAT was 1.04 ± 0.055; that for AGGAGGTTGG was 0.998 ± 0.017.

As to GCCAGCCGAC, the switch fluorescence ratio is 1.2 ± 0.032. The value for AGGTGGCGTG was 0.944 ± 0.022; that for CAAGCGTTGT was 1.03 ± 0.036. As to CAATGTCCCG, the switch fluorescence ratio is 0.9985 ± 0.0041. Under GGCAGGGGTT stands 1 ± 0.023; under CGGTTTGCGG, 0.982 ± 0.017. Under TGTGTCGGTC stands 1.07 ± 0.085; under AGAGACGGGG, 1.02 ± 0.013; under AGGATTGGGG, 1 ± 0.043.

Consider GAGAAATGTG, for which the switch fluorescence ratio was 1.03 ± 0.011. As to GGGCTGGGGT, the switch fluorescence ratio was 0.997 ± 0.038. The value for GGGAAAGCG was 1.04 ± 0.036; that for CGTATTTCAG was 0.983 ± 0.011; that for TTGGGCAGTG was 1.02 ± 0.045. Take GAGTAGATGT: the switch fluorescence ratio was 0.983 ± 0.011.

Regarding GCTTGGAGAG, the switch fluorescence ratio was 0.99 ± 0.013. Under TGGGGTTTGG stands 0.984 ± 0.036; under ACGACTTGGT, 1.09 ± 0.11; under ATTGTATTG, 0.986 ± 0.014. As for ATGTCGACAC, the switch fluorescence ratio stood at 0.976 ± 0.02.

As for AGTATTGTTT, the switch fluorescence ratio was 1.01 ± 0.02. Under GACCACTTGA stands 1.01 ± 0.014; under TTGATAGGCC, 0.9998 ± 0.0049; under AACAGGGACC, 1.04 ± 0.017.

On to AGGCAGTGTC, for which the switch fluorescence ratio was 1.04 ± 0.05. The value for CGGCTAGACG was 0.9994 ± 0.0057. Under AAAGCGTATA stands 0.987 ± 0.052; under AAGAAATCGG, 1.01 ± 0.018; under CGTTTGGGCT, 1.023 ± 0.0037. Under AAGAGGAAGC stands 0.984 ± 0.049; under ACCTGCAATG, 2.43 ± 0.2. With GCTTGGTGCA, the switch fluorescence ratio stood at 0.997 ± 0.031. The value for TAGGGCATCG was 1.01 ± 0.03; that for GCCCTCCAGA was 1.14 ± 0.13. The value for CCTCTATTGG was 1.045 ± 0.0041; that for CGAATATAGC was 1.02 ± 0.015. Under TGATGGTGTC stands 0.968 ± 0.011; under CTTGTTAGGA, 1 ± 0.012; under TTTCAACTAC, 1.25 ± 0.23.

TCGTGGTTTC: the switch fluorescence ratio was 0.9823 ± 0.0069. Under TTTCTTTAAG stands 0.985 ± 0.04; under AACAGGATCG, 1.01 ± 0.053. With GTTGCTACTG, the switch fluorescence ratio turned out to be 1.05 ± 0.041. The value for GTAAGGAGTA was 0.96199 ± 0.0002. In the case of GGAATATTGG, the switch fluorescence ratio worked out at 1.02 ± 0.019. The value for TATGGAGAGC was 1.02 ± 0.038; that for CGGCAGGATG was 1.01 ± 0.024. As for CGTAAATTGG, the switch fluorescence ratio amounted to 1.02 ± 0.013.

Consider TAACGGGTG, for which the switch fluorescence ratio was determined as 1.08 ± 0.018.

On to TTTGCGG, for which the switch fluorescence ratio was found to be 1.009 ± 0.0082. Regarding GGGGGAAGCT, the switch fluorescence ratio is 1.03 ± 0.05. Under CGGGGGGGCA stands 1 ± 0.038. The value for TAGAGGCGTT was 0.986 ± 0.012; that for TCACTATATT was 1.08 ± 0.045; that for AAGTTGAGGA was 0.978 ± 0.016. The value for GCGTTGTGAA was 0.9835 ± 0.0057; that for GAATATGAGA was 0.9629 ± 0.0051; that for TTAAGGTGTA was 1.1 ± 0.064. As to GTTAGGGGGA, the switch fluorescence ratio was found to be 1 ± 0.011. On to CGTAATAAGG, for which the switch fluorescence ratio was determined as 0.98799 ± 0.00022.

Turning to GGTGTTCAGC, the switch fluorescence ratio came out at 0.981 ± 0.04. In the case of ACGGCAGTGA, the switch fluorescence ratio turned out to be 1.0394 ± 0.00012. The value for TACGGGCGGG was 1.24 ± 0.17.
